Experimental data: US20240092867A1 (UNIVERSITY OF CHICAGO, published 2024)

T1: vascular endothelial growth factor (VEGF)-A121 (human, UniProt P15692-9 27-147)
T1 construct: mature; Purchased in mature form, not glycosylated
T1 sequence (looked up): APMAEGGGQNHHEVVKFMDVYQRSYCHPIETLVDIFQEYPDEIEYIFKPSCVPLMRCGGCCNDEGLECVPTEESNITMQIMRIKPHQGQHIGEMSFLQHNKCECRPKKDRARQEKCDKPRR

T2: recombinant human VEGF-A145 (human, UniProt P15692-6 27-171)
T2 sequence (looked up): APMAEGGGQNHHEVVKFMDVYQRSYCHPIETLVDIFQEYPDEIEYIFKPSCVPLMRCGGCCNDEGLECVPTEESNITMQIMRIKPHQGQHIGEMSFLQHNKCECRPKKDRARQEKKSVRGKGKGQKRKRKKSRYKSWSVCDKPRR

T3: placental growth factor (PlGF)-2 (human, UniProt P49763-3 19-170)
T3 construct: mature; Purchased in mature form
T3 sequence (looked up): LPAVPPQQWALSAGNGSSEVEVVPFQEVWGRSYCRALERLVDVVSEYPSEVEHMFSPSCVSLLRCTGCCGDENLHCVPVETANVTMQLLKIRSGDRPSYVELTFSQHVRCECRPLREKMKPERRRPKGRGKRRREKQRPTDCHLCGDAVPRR

T4: placental growth factor (PlGF)-1 (human, UniProt P49763-2 19-149)
T4 construct: mature; Purchased in mature form
T4 sequence (looked up): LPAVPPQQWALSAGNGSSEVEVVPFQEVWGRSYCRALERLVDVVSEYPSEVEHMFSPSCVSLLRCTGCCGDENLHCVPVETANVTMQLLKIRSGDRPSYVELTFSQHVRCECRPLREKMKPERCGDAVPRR

B1: Scrambled HBD (peptide)
peptide: LYCEIARGYSLKRKVPDQIRSRKA
notes: also called scrambled vWF A1 HBD peptide

Assays:
[1] = target: T1, vascular endothelial growth factor …; test: ELISA; peptides and vWF forms coated at 50 nM, VEGF-A in solution, detected with anti-VEGF-A antibody [panel D]
Method: (A) Diagram of exon sequence of VEGF-A showing inclusion (+) or exclusion (−) of heparin binding domain exons for the different VEGF-A isoforms. […] Bound VEGF-A was detected using a specific antibody for VEGF-A (n=4, mean±SD). Statistical comparisons were done using ANOVA with Tukey's test compared with BSA control. **p<0.01.
(§1) ELISA was performed as previously reported1. […] After blocking with 2% BSA solution containing PBS-T, 1 μg/mL of recombinant human VEGF-A121 (PeproTech), recombinant human VEGF-A145 (R & D Systems), or recombinant human VEGF-A165 (PeproTech) was added. Bound VEGF-A was detected with 1 μg/mL of mouse anti-human VEGF-A antibody (clone: 26503, R & D systems). After 60 min of incubation, horseradish peroxidase (HRP) conjugated goat anti-mouse antibody (1:2000 dilution, Dako) was added and incubated for another 60 min. Color development and the absorbance measurement were done as described above.

[2] = target: T2, recombinant human VEGF-A145; test: ELISA, peptide coated 50 nM
Method: as §1

[3] = target: T5, vascular endothelial growth factor (VEGF)-A165 (human, UniProt P15692-4 27-191); test: ELISA, peptide coated 50 nM
T5 construct: mature; Purchased in mature form, not glycosylated
Method: as §1

[4] = target: T3, placental growth factor (PlGF)-2; test: ELISA, peptide coated
Outline: (§2)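 Wells coated with 10 μg/mL laminin α3/α4/α5 LG-domain peptides, BSA-coated wells as non-binding control, blocked with 2% BSA PBS-T. Recombinant human GFs added at 1 μg/mL; bound GF detected with GF-specific biotinylated antibody plus streptavidin-HRP (n=4, mean±SEM).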

[5] = target: T4, placental growth factor (PlGF)-1; test: ELISA, peptide coated
Outline: as §2

[6] = target: T1, vascular endothelial growth factor …; test: ELISA, peptide coated
Outline: as §2

[7] = target: T6, fibroblast growth factor (FGF)-2 (human, UniProt P09038 143-288); test: ELISA, peptide coated
T6 construct: mature; Purchased in mature form
Outline: as §2

[8] = target: T7, platelet-derived growth factor (PDGF)-BB (human, UniProt P01127 82-190); test: ELISA, peptide coated
T7 construct: mature; Purchased in mature form
Outline: as §2

[9] = target: T5, vascular endothelial growth factor …; test: ELISA, peptide coated
Outline: as §2

T6 sequence (P09038 143-288): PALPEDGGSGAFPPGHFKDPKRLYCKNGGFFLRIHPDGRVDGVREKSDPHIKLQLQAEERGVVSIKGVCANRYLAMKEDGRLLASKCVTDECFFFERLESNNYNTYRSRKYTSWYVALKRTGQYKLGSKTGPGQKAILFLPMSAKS
T7 sequence (P01127 82-190): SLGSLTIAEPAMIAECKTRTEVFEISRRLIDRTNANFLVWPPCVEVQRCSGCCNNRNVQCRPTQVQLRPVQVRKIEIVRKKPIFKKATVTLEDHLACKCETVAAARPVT

Row | Binder | binding result [1] | binding result [2] | binding result [3] | binding result [4] | binding result [5] | binding result [6] | binding result [7] | binding result [8] | binding result [9]
1 | B1 | no binding (tested: 1 µg/mL VEGF-A121 (single concentration)) | no binding (tested: 1 µg/mL) | no binding (tested: 1 µg/mL) |  |  |  |  |  | 
2 | ARKASRRSRQPARH (Chemically synthesized (Genscript)) [laminin α5 3312-3325 peptide (Linker)] |  |  |  | no binding (tested: 1 µg/mL) | no binding (tested: 1 µg/mL) | no binding (tested: 1 µg/mL) | no binding (tested: 1 µg/mL) | no binding (tested: 1 µg/mL) | no binding (tested: 1 µg/mL)
